These results are taken from patent US20240301070A1, “IMPROVING ANTIBODY TOLERABILITY ASSOCIATED WITH INTRAVENOUS ADMINISTRATION” (BIOINVENT INTERNATIONAL AB, priority 2020, published 2024).

Entries after “also recorded” stand apart in the source; their conditions may differ.

For data set [1], the system named is wildtype C57/BL6 mice. The data set is described as follows: Macroscopic IRR scoring (0-2) of mice after antibody injection. The data set is classed as in vivo, mouse. On the procedure:
Six to eight weeks-old (17-20 g) female C57/BL6 and Balb C mice were obtained from Taconic or Janvier. Mice were injected i.v with mouse anti-CD32B AT-130-2 IgG2a either as a bulk dose of 200 ug/mouse or as a split-dose with 8 ug/mouse followed by 200 ug/mouse. […]
Mice were monitored post injection with regards to changes in behavior and macroscopic symptoms such as isolation, mobility, and fur condition. Macroscopic IRRs scoring system of 0-2 was set up based on the observations.
These premedications were given i.p 1h prior to injection i.v of mouse anti-CD32B AT-130-2 IgG2a as a bulk dose of 200 ug/mouse. […]
Mice were monitored post injection with regard to changes in behavior and macroscopic symptoms such as isolation, mobility, and fur condition. Macroscopic IRRs scoring system of 0-2 was set up based on the observations: […]

Data set [2] relates to wildtype C57/BL6 mice. Description: Platelet count in fresh mouse blood (Vetscan). The data set is classed as in vivo. To be noted: 40 mg/kg, 1 hour only, 10 mg/kg AT-130-2 IgG2a i.v. The method, then:
Blood samples were collected from vena saphena 20 min post injection of bulk dose of anti-CD32B for instant blood count analysis. For liver enzyme and cytokine analysis, the mice were bled from the aorta under isoflurane anesthesia just prior to sacrifice. Samples for liver enzymes and cytokines were collected 1h and respectively 3h after bulk dose.
Platelet counts were analyzed in fresh blood using a Vetscan (Vetscan HM5 Abaxis, Triolab).
Blood samples were collected from vena saphena for instant blood count analysis. For serum concentrations of AT130-2, liver enzyme and cytokine analysis, the mice were bled from the aorta under isoflurane anesthesia just prior to sacrifice.
Blood samples were collected from vena saphena for instant blood count analysis.

Data set [3] deals with mouse CD32B (FcγRIIB) (mouse) (UniProt P08101). The data set is described as follows: receptor saturation at 10 ug/ml serum concentration of AT-130-2; separate experiments not shown.
Chain of mouse CD32B (FcγRIIB) (mouse) (P08101 30-207 limits assumed): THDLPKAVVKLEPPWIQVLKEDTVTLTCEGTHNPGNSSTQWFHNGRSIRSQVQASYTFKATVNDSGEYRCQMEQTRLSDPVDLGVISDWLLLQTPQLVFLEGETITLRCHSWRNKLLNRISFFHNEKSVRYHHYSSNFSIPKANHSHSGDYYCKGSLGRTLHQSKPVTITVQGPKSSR
The target of data set [4] is T1, FcgRIIb (Homo sapiens, UniProt P31994).
T1 construct: FcgRIIb receptor occupancy on peripheral B cells (A) and peripheral B cell levels (B) in human subjects; endogenous in cells; host or cells: peripheral CD19+ B cells in whole blood of human subjects (same method also used on hFcgRIIB transgenic mice)
T1 sequence (P31994 43-310): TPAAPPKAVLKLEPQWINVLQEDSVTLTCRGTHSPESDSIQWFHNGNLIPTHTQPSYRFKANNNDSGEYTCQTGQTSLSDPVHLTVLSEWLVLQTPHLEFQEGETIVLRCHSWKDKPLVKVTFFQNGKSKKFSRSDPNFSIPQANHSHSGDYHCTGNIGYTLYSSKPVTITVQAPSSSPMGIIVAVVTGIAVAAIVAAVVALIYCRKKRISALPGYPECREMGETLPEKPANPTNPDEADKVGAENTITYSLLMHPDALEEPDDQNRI
Description: FcgRIIb receptor occupancy on peripheral B cells (flow cytometry). The data set is classed as in vivo. Conditions: 100 mg BI-1206. On the procedure: The FcgRIIb receptor occupancy in humans and hFcgRIIb transgenic mice was analyzed using flow cytometry. Whole blood from was incubated with either 005-C05 antibody (targeting hFcgRIIb) or anti-hCD32-AF647 antibody. 005-C05 binds the same epitope as BI-1206 but with much lower affinity. In the analysis, the Geo Mean of respectively mAb (005-C05 and anti-human CD32) was acquired on the CD19+ cell population. Receptor occupancy (RO) was calculated using the following equations: RO (%)=((Total Receptors-Normalized Free Receptors)*100)/Total Receptors. All replicates of 005-C05 geo mean of CD19+ cells were then multiplied by the Normalization factor.

In data set [5] the test system is human subjects with non-hodgkins B-cell lymphoma. Description: Platelet counts in clinical studies with BI-1206. The data set is classed as in vivo.
Description: (§1) Platelet counts, ALT concentrations and IRR grading were obtained from clinical sites where anayzed and reported according local standard procedures.
Data set [6] concerns peripheral B lymphocytes. Description: Peripheral B lymphocyte depletion in human subjects. The data set is classed as in vivo. To be noted: 100 mg BI-1206.
In data set [7] the test system is human subjects with non-hodgkins B-cell lymphoma. Description: Cytokine analysis of plasma/serum of human subjects (MSD). The data set is classed as in vivo. The method, then: For cytokine concentrations, frozen plasma samples were thawed and diluted ×2 and ×8. Two parallel set of cytokines were analyzed, the proinflammatory assay with IL-6, IL-8, TNF-α, IFN-γ, IL-10, IL-2 and IL-4 (MesoScale Discovery (MSD) #K15049), and the chemokine assay with MIP-1β, IL-1β, IL-23, IL-12p 70, TARC and VEGF (MSD #K15067). The assays followed the manufacturer's protocol as outlined briefly: 50 μL of sample and calibration standard were added to the appropriate MSD plates and incubated. Following washing, 25 µL of SULFO-TAG detection antibody mixture were added to each well of the corresponding plate. The plates were analyzed on a QuickPlex SQ120 Reader instrument (MSD) and cytokine concentration was calculated using the MSD software (Discovery Workbench, 2013; version LSR-4-0-12).

The test system is the same in data set [8]. The data set is described as follows: IRR grading in clinical studies with BI-1206. The data set is classed as in vivo. From the text:
The IRR that may be prevented or mitigated as described herein and/or that may be predicted with the method described herein may be any IRR. The adverse event denoted “Infusion related reaction” in the CTCAE version 5.0 is used for disorders characterized by adverse reaction to the infusion of pharmacological or biological substances; belonging to the group of “Injury, poisoning and procedural complications”.

The test system is the same in data set [9]. The data set is described as follows: ALT/AST in clinical studies with BI-1206.
Description: as §1
Where [10] appears, read: 70 mg BI-1206, subjects 501-001 and 503-002.
[11] abbreviates: ≥50 mg BI-1206 (FIG. 6: 70-100 mg).

`CCCCCCCCCCCCCCCCCCNC(=O)OCC(COP(=O)([O-])OCC[n+]1ccsc1)OC` (stereo not drawn) [anti-PAF]: the “inhibition of IRRs by other pre-medications” value in data set [1] (i.p. 1h prior to i.v. AT-130-2 IgG2a bulk dose 200 ug/mouse) is “None of these pre-medications could inhibit IRRs; also recorded: none of the tested substances (anti-PAF, anti-IL-6, anti-histamine and a leukotrien-antagonist) could prevent the IRRs”.

On to `C[C@H]1C[C@H]2[C@@H]3CCC4=CC(=O)C=C[C@]4(C)[C@@]3(F)[C@@H](O)C[C@]2(C)[C@@]1(O)C(=O)CO` [betamethasone], for which, in data set [1] (40 mg/kg, 1 hour only, 10 mg/kg AT-130-2 IgG2a i.v.), the “effect of single premedication on macroscopic symptoms (IRRs)” value was “did not inhibited”. The “grade of macroscopic symptoms after single premedication” value in data set [1] (40 mg/kg, 24 hours only, 10 mg/kg AT-130-2 IgG2a i.v.) amounted to 1. The “effect of single premedication on platelet decrease” value in data set [2] is on record as “did not inhibited”.

In [3], “AT-130-2 IgG2a (anti-mouse CD32B IgG2a clone AT130-2) (antibody)” registered a receptor saturation of 100%.

For the compound “BI-1206: anti-FcγRIIB antibody with light chain SEQ ID No: 1 and heavy chain SEQ ID No: 2”, in data set [4], the “FcγRIIB receptor occupancy on peripheral B cells” value is roughly 100% and the “duration of receptor saturation” value is “up to 48 hours”. Besides, the platelet decrease result in data set [5] (30 mg BI-1206, subject 201-003) is on record as “never been seen”. The “platelet decrease after premedication with two doses of dexamethasone” value in data set [5] (setting [10]) is listed as “no/low platelet decrease”. Besides, in data set [5] (setting [11]), the platelets result was “The decrease is transient”, the seriousness of thrombocytopenia entry is “never serious or associated with bleeding; also recorded: not been serious nor associated with bleeding” and the “time to resolution of most thrombocytopenia episodes” value was “within a week”. In data set [6], the “peripheral B lymphocytes” value is listed as “transient depletion” and the “time to recovery of peripheral B lymphocytes” value is given as “approximately 7 days”. In data set [7] (70-100 mg BI-1206 (FIG. 6), serum/plasma available), the “subjects with transient cytokine release” value was 7 of 8. In [7] (≥70 mg BI-1206), the “association of cytokine release with clinical symptoms” value is reported as “not been associated with clinical symptoms”; the “cytokines included in the release” value was “macrophage inflammatory protein (MIP)-1β, tumor necrosis factor (TNF)-α, interleukin (IL)-10, IL-8, IL-6, and IL-4”; the “time of peak cytokine release” value is “immediately after infusion”; the “time to normalization of cytokines” value is no more than 24 h. Also, in data set [8] (30 mg BI-1206, subject 201-003, 9 administrations), the “IRR's without two-dose premedication” value is “repeatedly experienced IRR's”. Moreover, the “grade of IRR's with two doses of dexamethasone” value in data set [8] (30 mg BI-1206, subject 201-003, 10th administration) is reported as 1. Further, the “IRRs after premedication with two doses of dexamethasone” value in data set [8] (70 mg BI-1206, subjects 501-001 and 503-002, 12 mg / 4 mg evening before and 20 mg 30 minutes prior) is on record as “None of the subjects suffered any IRRs; also recorded: did not suffer IRRs”. For the same compound, in [8] (70 mg BI-1206 with rituximab, subjects 501-001 and 503-002, dexamethasone (20 mg) only 30 minutes prior to infusion), the “grade of IRRs” value is reported as 2-3. Moreover, the “severity and frequency of IRRs after implementation of two-dose corticosteroid premedication” value in data set [8] (70-100 mg BI-1206, study 17-BI-1206-02) is “Significantly lower frequency and severity of IRRs; also recorded: statistically significant reduced severity and frequency of IRRs”. Besides, the “infusion related reactions (IRRs) during BI-1206 infusions” value in [8] (i.v., human subjects) is listed as “frequently associated with IRRs; also recorded: Frequent”. Further, the “ALT/AST increase after premedication with two doses of dexamethasone” value in [9] (setting [10]) was “no ALT/AST increase”. In addition, in data set [9] (≥70 mg BI-1206), the “subjects with significant ALT and AST increase” value is given as 3 out of 16.
